# T1: cynomolgus TIM-3 ECD fused C-terminally to human IgG1 Fc (made in-house, ExpiCHO) (cynomolgus monkey (Macaca …))
# T1 construct: whole entry named
# T1 chain: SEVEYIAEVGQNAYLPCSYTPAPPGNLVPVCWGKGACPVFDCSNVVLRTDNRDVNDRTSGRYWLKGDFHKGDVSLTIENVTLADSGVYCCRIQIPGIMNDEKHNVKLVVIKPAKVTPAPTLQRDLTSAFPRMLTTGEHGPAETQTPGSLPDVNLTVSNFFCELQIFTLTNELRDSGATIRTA
# What was measured:
# [1] = biological target: T1, cynomolgus TIM-3 ECD fused C-terminally …; assay: SPR (IBIS MX96); TIM-3 ECD-Fc captured on anti-human IgG Fc sensor, Fab injected 1-100 nM; 1:1 Langmuir fit
# [2] = biological target: T2, human TIM-3 Fc fusion antigen (Sino Biologicals) (human, UniProt Q8TDQ0 22-202); assay: ELISA; TIM-3 Fc fusion coated at 1 µg/ml, antibody titrated 2-fold from 1000 nM, HRP secondary
# T2 construct: Bought; also called human TIM-3 ECD; not shown: Fc part of the bought fusion protein, not described
# [3] = biological target: T3, monomeric human TIM-3 ECD antigen (Acro Biosystems) (human, UniProt Q8TDQ0 22-202); assay: SPR (IBIS MX96); antibody captured on anti-human IgG Fc sensor, monomeric human TIM-3 ECD injected 2-100 nM; 1:1 Langmuir fit
# T3 construct: Bought; also called soluble monovalent TIM-3 antigen (Acro Biosystems, China)
# [4] = biological target: T4, R-PE-labeled human TIM-3-Fc chimera protein (R&D Systems) (human, UniProt Q8TDQ0 22-200, conjugated to R-phycoerythrin (R-PE), sites not stated); assay: flow cytometry competition: R-PE-labelled TIM-3-Fc pre-mixed with titrated antibody, then binding to phosphatidylserine-positive apoptotic Jurkat cells (MFI); blocked ligand: phosphatidylserine; unit taken from the axis log(Concentration) µg/ml
# T4 construct: Bought; also called TIM-3-PE; soluble TIM-3-Fc; Fc part of the bought chimera not given, not described
EC50 [2] [nM],Binder,also measured
,"Fab 20131 (Fab, V domains shown, not shown: cleavage site not s) VH: QVQLQQSGGGLVQPGGSLRLSCAASGFTLSSYAMSWVRQAPGKGLEWVSGISGSGGSTYNADSVKGRFTISRDNSKNTLFLQMNSLRAEDTAVYYCAKIFGSYYFDYWGQGTLVTVSS VL: not shown",Kd [1]: 22 nM
0.73,"antibody 19324 (antibody, V domains shown) VH: QMQLQQSGGGLVQPGGSLRLSCAASGFTVSSYAMSWVRQALGKGLEWVSGISGSGGSTYYADSVKGRFTISRDNSKNTLYLQMNSLRAEDTAVYYCAKIVGATHFDYWGQGTLVTVSS VL: not shown",
0.17,"antibody 20185 (antibody, V domains shown) VH: QVQLVESGGGLVRPGGSLRLSCAVSGFTFSSYAMSWVRQAPGKGLEWVSGISGSGGSTYNADSVKGRFTISRDNSKNTLYLQMNSLRAEDTAVYYCAKIFGSYYFDYWGQGTLVTVSS VL: not shown",
1.13,"antibody 20300 (antibody, V domains shown) VH: QVQLQQSGGGLVHPGGSLRLSCAASGFTVDTYAMTWVRQAPGKGLEWVSGISGSGGSTYYADSVKGRFTISRDNSKNTLYLQMNSLRDEDTAVYYCAKIVGVTHFDYWGQGTLVTVSS VL: not shown",
0.2,"antibody 19416 (antibody, V domains shown) VH: QVQLVESGPGLVKPSQTLSLTCTVSGGSINSGGYYWSWIRQHPGKGLEWIGYIYYSGSIYYNPSLRSRLTISVDTSKNQFSLKLSSVTAADTAVYYCATPYYYGSGSYGDYWGQGTLVTVSS VL: DIQMTQSPATLSLSPGERATLSCRASQSVNNYLAWYQQKPGQAPRLLIYDASNRATGIPARFSGSGSGTDFTLTISSLEPEDFAVYYCQQRSNWPITFGQGTRLEIK",
0.38,"antibody 19568 (antibody, V domains shown) VH: QMQLQESGPGLVKPSQTLSLTCTVSGGSISSVGYYWNWIRQHPGKGLEFIGYIYYSGSIYYNPSLKSRVTISVDTSKNQFSLKLSSVTAADTALYYCASVGIVGASYFEYWGQGTLVTVSS VL: EIVMTQSPATLSLSPGERATLSCRASQSVSSYLAWYQQKPGQAPRLLIYDASNRATGIPARFSGSGSGTDFTLTISSLEPEDFAVYYCQQRSNWPITFGQGTRLEIK",
0.26,"antibody 20362 (antibody, V domains shown) VH: QVTLKESGPGLVKPSQTLSLTCTVSGGSISSGGHYWSWIRQHPGKGLEWIGYISYSGSTYYNPSLKSRLTISVDTSKNQFSLKLSSVTAADTAVYYCATAYYDILTGYPFDYWGQGTLVTVSS VL: EIVMTQSPATLSLSPGERATLSCRASQSVSSYLAWYQQKPGQAPRLLIYDASDRATGIPARFSGSGSGTDFTLTISSLEPEDFAVYYCQQRSNWPITFGQGTRLEIK",
0.22,"antibody 20621 (antibody, V domains shown) VH: QVQLQQSGPGLVKPSQTLSLTCTVSGGSISSGGYYWSWIRQHPGKGLEWIGYISYSGSIYYNPSLKSRVTISVDTSKNQFSLKLSSVTATDTAVYYCATAYYDLLTGYPFDYWGQGTLVTVSS VL: EIVMTQSPATLSLSPGERATLSCRASQSVSSYLAWYQQKPGQAPRLLIYDASNRATGIPARFSGSGSGTDFTLTISSLEPEDFAVYYCQQRSNWPITFGQGTRLEIK",
0.125,"antibody 15086.17145 (antibody, human IgG2, kappa) heavy: QVQLQESGPGLVKPSQTLSLTCTVSGGSISSGGYYWSWTRQHPGMGLEWIGYISYSGSIYYTPSLKSRLTISVDTSKNQFSLKLSSVTAADTAVYYCASLDSWGSNRDYWGQGTLVTVSSASTKGPSVFPLAPCSRSTSESTAALGCLVKDYFPEPVTVSWNSGALTSGVHTFPAVLQSSGLYSLSSVVTVPSSNFGTQTYTCNVDHKPSNTKVDKTVERKCCVECPPCPAPPVAGPSVFLFPPKPKDTLMISRTPEVTCVVVDVSHEDPEVQFNWYVDGVEVHNAKTKPREEQFNSTFRVVSVLTVVHQDWLNGKEYKCKVSNKGLPAPIEKTISKTKGQPREPQVYTLPPSREEMTKNQVSLTCLVKGFYPSDIAVEWESNGQPENNYKTTPPMLDSDGSFFLYSKLTVDKSRWQQGNVFSCSVMHEALHNHYTQKSLSLSPGK light: not shown",Kd [3]: 19 nM; IC50 [4]: 0.651 µg/mL
